Patent publication US20190077863A1 (AERPIO PHARMACEUTICALS, published 2019)

T1: Cynomolgus VE-PTP (Cyno PTP-β) containing first eight FN3 repeats with C-terminal His10 tag (Cyno Beta ½ … (cynomolgus, UniProt P23467 25-817 (human entry)))
T1 construct: Produced in HEK293 cells; it was not cut off; also called Cyno VE-PTP
T1 chain: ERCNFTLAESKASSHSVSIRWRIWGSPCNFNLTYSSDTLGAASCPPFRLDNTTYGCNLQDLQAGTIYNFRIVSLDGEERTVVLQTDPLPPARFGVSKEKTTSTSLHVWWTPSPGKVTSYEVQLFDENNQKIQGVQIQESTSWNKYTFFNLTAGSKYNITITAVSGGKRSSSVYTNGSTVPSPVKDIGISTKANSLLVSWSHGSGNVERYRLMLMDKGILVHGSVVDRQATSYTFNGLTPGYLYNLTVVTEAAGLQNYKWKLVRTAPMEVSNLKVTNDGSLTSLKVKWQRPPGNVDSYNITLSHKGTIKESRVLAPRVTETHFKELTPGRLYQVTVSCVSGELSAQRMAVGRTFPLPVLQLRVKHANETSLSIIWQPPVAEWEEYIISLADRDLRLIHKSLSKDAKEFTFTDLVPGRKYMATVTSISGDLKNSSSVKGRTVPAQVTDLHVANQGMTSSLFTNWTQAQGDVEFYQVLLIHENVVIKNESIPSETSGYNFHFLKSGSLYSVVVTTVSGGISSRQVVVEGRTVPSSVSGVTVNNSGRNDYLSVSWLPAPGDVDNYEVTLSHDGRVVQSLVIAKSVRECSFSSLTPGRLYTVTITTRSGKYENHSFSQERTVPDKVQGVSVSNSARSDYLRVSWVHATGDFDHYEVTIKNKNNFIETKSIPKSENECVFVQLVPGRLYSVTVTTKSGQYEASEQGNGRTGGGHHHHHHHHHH

T2: Human VE-PTP (HPTP-β) containing first eight FN3 repeats with C-terminal His6 tag (Human ½ VE-PTP ECD) (human, UniProt P23467 23-820)
T2 construct: Produced in HEK293 cells and purified by the His tag; it was not cut off; also called Human Beta ½ ECD
T2 sequence: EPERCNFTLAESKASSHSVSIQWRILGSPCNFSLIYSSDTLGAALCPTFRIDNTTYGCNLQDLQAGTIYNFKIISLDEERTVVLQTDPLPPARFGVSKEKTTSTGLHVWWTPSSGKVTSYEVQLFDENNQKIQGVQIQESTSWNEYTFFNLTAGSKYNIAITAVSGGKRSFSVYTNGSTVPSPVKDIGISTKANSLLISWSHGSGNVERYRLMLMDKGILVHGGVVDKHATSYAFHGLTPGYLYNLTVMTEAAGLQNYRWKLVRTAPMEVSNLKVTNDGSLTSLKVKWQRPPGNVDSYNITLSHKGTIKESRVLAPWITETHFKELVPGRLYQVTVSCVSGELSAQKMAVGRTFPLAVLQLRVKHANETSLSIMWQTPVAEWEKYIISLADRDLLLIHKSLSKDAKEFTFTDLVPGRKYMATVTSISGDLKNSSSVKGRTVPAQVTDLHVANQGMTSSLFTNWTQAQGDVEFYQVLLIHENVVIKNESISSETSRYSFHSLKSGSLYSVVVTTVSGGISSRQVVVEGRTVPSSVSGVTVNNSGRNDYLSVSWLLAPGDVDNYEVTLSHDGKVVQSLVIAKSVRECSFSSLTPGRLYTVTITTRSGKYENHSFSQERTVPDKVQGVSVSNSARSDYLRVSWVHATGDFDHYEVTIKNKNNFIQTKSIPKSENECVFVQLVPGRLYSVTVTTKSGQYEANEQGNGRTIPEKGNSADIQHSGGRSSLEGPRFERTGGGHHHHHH


Key:
[1] = molecular target: T1, Cynomolgus VE-PTP (Cyno PTP-β) …; test: ELISA, coated antigen
Procedure: HPTP-β, cyno PTP-β, and HPTP-η proteins were coated onto ELISA plates in coating buffer (pH 9.4). Each protein was prepared as a 1 μg/mL protein stock in 50 mM carbonate-bicarbonate. The coated proteins were aliquoted at a volume of 100 μL/well into sterile, clear, polystyrene, flat bottom 96-well plates. The plates were incubated overnight at 4° C. After overnight incubation, the plates were washed 3× with 200 μL/well of 1×PBS-T (PBS with 0.05% Tween 20). The immunizing protein was human VE-PTP (HPTP-β). The plates were then blocked with 200 μL/well of 5% blotting grade blocker non-fat dry milk in PBS-T and incubated for 1 hr at room temperature.
Primary antibody samples were prepared for the humanized variants and the negative control, anti-hCD20-hIgG4S228P, using 1 μg/well in 5% blotting grade blocker non-fat dry milk in PBS. Samples were tested in triplicates. The Fab antibody fragments were treated as the IgG antibodies. The plates were then washed 3× with PBS-T and 100 μL of primary antibody preparation was added in each well. The plates were then incubated for 1 hr at room temperature.
Then, […] Ultra TMB-ELISA was added in each well, and the plate was allowed to develop for 5 min at room temperature. After 5 min, 50 μL of 2 M sulfuric acid was added to each well to stop the reaction. The plates were then analyzed on a plate reader at an absorbance wavelength of 450 nm.

[2] = molecular target: T2, Human VE-PTP (HPTP-β) containing first …; test: SPR (Biacore 3000), antibody captured on anti-human IgG, antigen as analyte 50-0 nM
Procedure: (§1) Samples of each variant were further assessed by Biacore analysis to determine the binding affinity. Antibody binding experiments were performed on Biacore 3000™ at 25° C. Assay buffer: 10 mM HEPES buffer (pH 7.4), 150 mM NaCl, 3 mM EDTA, 0.05% P20 (polyoxyethylenesorbitan). […] Conjugation buffer: 10 mM sodium acetate buffer (pH 5). The flow rate used for capturing the ligand was 5 μL/min. The flow rate for the kinetic analysis was 50 μL/min. Flow cell 1 and […] of the CM5 chip were coated with maximum amounts of goat anti-human IgG. Approximately 150 RU of the test antibody was captured on flow cell 2, 3, and 4 as indicated. The antigen was flowed over the chip. Binding of the antigen to the antibodies was monitored in real time. The KD was determined from the observed kₒₙ and koff values.

[3] = molecular target: T2, Human VE-PTP (HPTP-β) containing first …; test: SPR (Biacore 3000), antibody captured on anti-human IgG, antigen as analyte 25-0 nM
Procedure: as §1

Row | Binder | binding result [1] | Ka [2] | Kd [2] | koff [2] | kon [2] | Ka [3] | Kd [3] | koff [3] | kon [3]
1 | humanized R15E6 variant HC2LC1 (antibody, human IgG4 S228P, kappa, V domains shown, Human IgG4 (S228P) / kappa, expressed in CHO cells; Signal peptides left out by range; also called VH2-VL1) VH: EVQLVESGGGLVQPGGSLRLSCAASGFTFNANAMNWVRQAPGKGLEWVGRIRTKSNNYATYYAGSVKDRFTISRDDSKNSLYLQMNSLKTEDTAVYYCVRDYYGSSAWITYWGQGTLVTVSS VL: DVVMTQSPSFLSASVGDRVTITCKASQHVGTAVAWYQQRPGKAPKLLIYWASTRHTGVPSRFSGSGSGTEFTLTISSLQPEDFATYFCQQYSSYPFTFGGGTKLEIKR | no binding (tested: <=0.2; 1 µg/well) | 1.5e+10 M⁻¹ | 0.0668 nM | 7.23e-05 s⁻¹ | 1.08e+06 M⁻¹ s⁻¹ | – | – | – | –
2 | humanized R15E6 variant HC2LC2 (antibody, human IgG4 S228P, kappa, V domains shown, Human IgG4 (S228P) / kappa, expressed in CHO cells; Signal peptides left out by range; also called VH2-VL2) VH: EVQLVESGGGLVQPGGSLRLSCAASGFTFNANAMNWVRQAPGKGLEWVGRIRTKSNNYATYYAGSVKDRFTISRDDSKNSLYLQMNSLKTEDTAVYYCVRDYYGSSAWITYWGQGTLVTVSS VL: DIVMTQSPDSLAVSLGERATINCKASQHVGTAVAWYQQKPGQPPKLLIYWASTRHTGVPDRFSGSGSGTDFTLTISSLQAEDVAVYYCQQYSSYPFTFGQGTKLEIKR | no binding (tested: <=0.2; 1 µg/well) | – | – | – | – | 1.98e+07 M⁻¹ | 50.6 nM | 0.00215 s⁻¹ | 42500 M⁻¹ s⁻¹
3 | humanized R15E6 variant HC1LC4 (antibody, human IgG4 S228P, kappa, V domains shown, Human IgG4 (S228P) / kappa, expressed in CHO cells; Signal peptides left out by range; also called VH1-VL4) VH: EVQLVESGGGLVQPGGSLKLSCAASGFTFNANAMNWVRQASGKGLEWVGRIRTKSNNYATYYAGSVKDRFTISRDDSKNTAYLQMNSLKTEDTAAYYCVRDYYGSSAWITYWGQGTLVTVSS VL: DIVMTQSPDSLAVSLGERATINCKASQHVGTAVAWYQQKPEQPPKLLIYWASTRHTGVPDRFSGSGSGTDFTLTISSLQAEDVAVYYCQQYSSYPFTFGGGTKVEIKR | no binding (tested: <=0.2; 1 µg/well) | 4.44e+08 M⁻¹ | 2.25 nM | 0.00134 s⁻¹ | 596000 M⁻¹ s⁻¹ | – | – | – | –
4 | humanized R15E6 variant HC2LC3 (antibody, human IgG4 S228P, kappa, V domains shown, Human IgG4 (S228P) / kappa, expressed in CHO cells; Signal peptides left out by range; also called VH2-VL3) VH: EVQLVESGGGLVQPGGSLRLSCAASGFTFNANAMNWVRQAPGKGLEWVGRIRTKSNNYATYYAGSVKDRFTISRDDSKNSLYLQMNSLKTEDTAVYYCVRDYYGSSAWITYWGQGTLVTVSS VL: DIQMTQSPFSLSASVGDRVTITCKASQHVGTAVAWYQQKPGKAPKLLIYWASTRHTGVPSRFSGSGSGTDFTLTISSLQPEDFATYFCQQYSSYPFTFGGGTKLEIKR | no binding (tested: <=0.2; 1 µg/well) | – | – | – | – | 6.75e+08 M⁻¹ | 1.48 nM | 0.00123 s⁻¹ | 890000 M⁻¹ s⁻¹
5 | humanized R15E6 variant HC3LC4 (antibody, human IgG4 S228P, kappa, V domains shown, Human IgG4 (S228P) / kappa, expressed in CHO cells; Signal peptides left out by range; also called VH3-VL4) VH: EVQLVESGGGLVQPGRSLRLSCTASGFTFNANAMNWVRQAPGKGLEWVGRIRTKSNNYATYYAGSVKDRFTISRDDSKNIAYLQMNSLKTEDTAVYYCVRDYYGSSAWITYWGQGTLVTVSS VL: DIVMTQSPDSLAVSLGERATINCKASQHVGTAVAWYQQKPEQPPKLLIYWASTRHTGVPDRFSGSGSGTDFTLTISSLQAEDVAVYYCQQYSSYPFTFGGGTKVEIKR | no binding (tested: <=0.2; 1 µg/well) | – | – | – | – | 1.23e+08 M⁻¹ | 8.14 nM | 0.00109 s⁻¹ | 134000 M⁻¹ s⁻¹
6 | humanized R15E6 variant HC1LC2 (antibody, human IgG4 S228P, kappa, V domains shown, Human IgG4 (S228P) / kappa, expressed in CHO cells; Signal peptides left out by range; also called VH1-VL2) VH: EVQLVESGGGLVQPGGSLKLSCAASGFTFNANAMNWVRQASGKGLEWVGRIRTKSNNYATYYAGSVKDRFTISRDDSKNTAYLQMNSLKTEDTAAYYCVRDYYGSSAWITYWGQGTLVTVSS VL: DIVMTQSPDSLAVSLGERATINCKASQHVGTAVAWYQQKPGQPPKLLIYWASTRHTGVPDRFSGSGSGTDFTLTISSLQAEDVAVYYCQQYSSYPFTFGQGTKLEIKR | no binding (tested: <=0.2; 1 µg/well) | 4.33e+08 M⁻¹ | 2.31 nM | 0.000947 s⁻¹ | 410000 M⁻¹ s⁻¹ | – | – | – | –
7 | humanized R15E6 variant HC2LC4 (antibody, human IgG4 S228P, kappa, V domains shown, Human IgG4 (S228P) / kappa, expressed in CHO cells; Signal peptides left out by range; also called VH2-VL4) VH: EVQLVESGGGLVQPGGSLRLSCAASGFTFNANAMNWVRQAPGKGLEWVGRIRTKSNNYATYYAGSVKDRFTISRDDSKNSLYLQMNSLKTEDTAVYYCVRDYYGSSAWITYWGQGTLVTVSS VL: DIVMTQSPDSLAVSLGERATINCKASQHVGTAVAWYQQKPEQPPKLLIYWASTRHTGVPDRFSGSGSGTDFTLTISSLQAEDVAVYYCQQYSSYPFTFGGGTKVEIKR | no binding (tested: <=0.2; 1 µg/well) | 2.3e+09 M⁻¹ | 0.436 nM | 0.000429 s⁻¹ | 986000 M⁻¹ s⁻¹ | – | – | – | –
8 | mouse/human chimeric antibody HC0LC0 (antibody, human IgG4 S228P, kappa, V domains shown, Murine variable domains of R15E6 on human IgG4 (S228P) and kappa constant domains, expressed in CHO cells; also called VH0-VL0) VH: EVQLVETGGGLVQPKGSMKLSCAASGFTFNANAMNWIRQAPGKGLEWVARIRTKSNNYATYYAGSVKDRFTISRDDAQNMLYLQMNDLKTEDTAMYYCVRDYYGSSAWITYWGQGTLVTVSA VL: DIVMTQSHKFMSTSVGDRVSITCKASQHVGTAVAWYQQKPDQSPKQLIYWASTRHTGVPDRFTGSGSGTDFTLTISNVQSEDLADYFCQQYSSYPFTFGSGTKLEIKR | no binding (tested: <=0.2; 1 µg/well) | 3.18e+08 M⁻¹ | 3.14 nM | 0.000656 s⁻¹ | 209000 M⁻¹ s⁻¹ | – | – | – | –
